Reference: patent publication US11866736B2, “Protein prostheses for mitochondrial diseases or conditions” (The General Hospital Corporation, priority 2015, dated 2024)
Where a chain is given by its changes, count along the chain named. Numbers in names are those of the source.

B1: LbNOX: water-forming NADH oxidase endogenous to Lactobacillus brevis; tested with C-terminal FLAG tag (protein, listed as Lactobacillus brevis)
chain: KVTVVGCTHAGTFAIKQILAEHPDAEVTVYERNDVISFLSCGIALYLGGKVADPQGLFYSSPEELQKLGANVQMNHNVLAIDPDQKTVTVEDLTNHAQTTESYDKLVMTSGSWPIVPKIPGIDSDRVKLCKNWAHAQALIEDAKEAKRITVIGAGYIGAELAEAYSTTGHDVTLIDAMARVMPKYFDADFTDVIEQDYRDHGVQLALGETVESFTDSATGLTIKTDKNSYETDLAILCIGFRPNTDLLKGKVDMAPNGAIITDDYMRSSNPDIFAAGDSAAVHYNPTHQNAYIPLATNAVRQGILVGKNLVKPTVKYMGTQSSSGLALYDRTIVSTGLTLAAAKQQGLNAEQVIVEDNYRPEFMPSTEPVLMSLVFDPDTHRILGGALMSKYDVSQSANTLSVCIQNENTIDDLAMVDMLFQPNFDRPFNYLNILAQAAQAKVAQSVNA
modifications: C-terminal FLAG tag
B2: TPNOX: NADPH-specific quintuple mutant (G159A/D177A/A178R/M179S/P184R) of LbNOX (protein)
chain: B1 chain with G158A, D176A, A177R, M178S, P183R

Test system: HeLa Tet3G cells
Assay: Cell proliferation assays: rescue of the proliferation defect induced by respiratory chain inhibitors (nuclei counting)
Format: cell-based, human
Details: no pyruvate, doxycycline-inducible expression; for rescue of proliferation defect caused by piericidin: 1 μM piericidin
Protocol: Five hundred HeLa Tet3G NDI1, Luciferase, LbNOX or mitoLbNOX cells were seeded in 200 μl of DMEM (DMEM (US Biological, D9800), 3.7 g/L NaHCO3, 10% dialyzed FBS (Life Technologies, 26400-044)) per well in a black 96-well plate with clear bottom (Corning, 3904). Twenty four hours after seeding, media was exchanged to DMEM without pyruvate (DMEM (US Biological, D9802), 15.9 mg/L phenol red, 3.7 g/L NaHCO3, 10% dialyzed FBS (Life Technologies, 26400-044))±10 μg/ml chloramphenicol±30 ng/ml ethidium bromide±1 mM pyruvate±300 ng/ml doxycycline. After 0, 2, 3, 4, 5 and 6 days, media was aspirated and cells were fixed by adding 100 μl of 4% paraformaldehyde in PBS and incubating at room temperature for at least 30 min. Paraformaldehyde solution was aspirated and cells were stained with 200 μl of 1 μg/ml Hoechst 33345 in PBS. Plates were covered with sealing aluminum foil and stored at 4° C. before counting cells in each well with Molecular Dynamics IMAGEXPRESS® Ultra (see “Nuclei counting using Molecular Devices IMAGEXPRESS® Ultra,” below).
One thousand HeLa Tet3G NDI1, Luciferase, LbNOX or mitoLbNOX cells were seeded in 200 μl of DMEM (DMEM (US Biological, D9800), 3.7 g/L NaHCO3, 10% dialyzed FBS (Life Technologies, 26400-044)) per well in a black 96-well plate with clear bottom (Corning, 3904). Twenty four hours after seeding, 10 μl of 6 μg/ml doxycycline (300 ng/ml final concentration) or water was added to each well. Twenty four hours after addition of doxycycline, media was exchanged to DMEM without pyruvate (DMEM (US Biological, D9802), 15.9 mg/L phenol red, 3.7 g/L NaHCO3, 10% dialyzed FBS (Life Technologies, 26400-044)), ±1 μM piericidin, ±1 μM antimycin, ±1 mM pyruvate and ±300 ng/ml doxycycline. After 0, 1, 2, 3 and 4 days, media was aspirated and cells were fixed by adding 100 μl of 4% paraformaldehyde in PBS and incubating at room temperature for at least 30 min. Paraformaldehyde solution was aspirated and cells were stained with 200 μl of 1 μg/ml Hoechst 33345. Plates were covered with sealing aluminum foil and stored at 4° C. before counting cells in each well with Molecular Dynamics IMAGEXPRESS® Ultra (see “Nuclei counting using Molecular Devices IMAGEXPRESS® Ultra,” below).
Two thousand HeLa Tet3G Luciferase cells were seeded in 200 μl of DMEM (DMEM (US Biological, D9800), 3.7 g/L NaHCO3, 10% dialyzed FBS (Life Technologies, 26400-044)) per well in a black 96-well plate with clear bottom (Corning, 3904). Twenty four hours after seeding, media was exchanged to DMEM without pyruvate (DMEM (US Biological, D9802), 15.9 mg/L phenol red, 3.7 g/L NaHCO3, 10% dialyzed FBS (Life Technologies, 26400-044))±1 μM piericidin, ±indicated concentrations of pyruvate, lactate, malate, oxaloacetate, nicotinamide mononucleotide ([…]) or PJ34. After 3 days, media was aspirated and cells were fixed by adding 100 μl of 4% paraformaldehyde in PBS and incubating at room temperature for at least 30 min. Paraformaldehyde solution was aspirated and cells were stained with 200 μl of 1 μg/ml Hoechst 33345. Plates were covered with sealing aluminum foil and stored at 4° C. before counting cells in each well with Molecular Dynamics IMAGEXPRESS® Ultra (see “Nuclei counting using Molecular Devices IMAGEXPRESS® Ultra,” below).
Images of 96-well plates with fixed cells stained with Hoechst 33345 were collected using Molecular Devices IMAGEXPRESS® Micro XLS. Four images were taken to cover the whole well. Images were analyzed and nuclei number per well was counted using CellProfiler 2.0 image analysis software (Carpenter, et al., Genome Biol., 7:R100, 2006; and Kamentsky, et al., Bioinformatics, 27:1179, 2011). […]

Molecule	rescue of proliferation defect caused by ethidium bromide (30 ng/ml ethidium bromide)	rescue of proliferation defect caused by antimycin (1 μM antimycin)	rescue of proliferation defect caused by piericidin	rescue of proliferation defect caused by chloramphenicol (10 μg/ml chloramphenicol)
B1	rescued completely	rescued completely	rescued completely	rescued completely
B2			not	
